Patent EP4786492A1
Each block holds one binder with its values, some of them ahead of it.

Tests used:
[1] = biological target: human delta-like ligand 3 (DLL3) on SHP77 cells (human) (UniProt Q9NYJ7); assay: FACS on SHP77 cells
[2] = biological target: human DLL3 protein expressed on CHO-K1 recombinant cells (human DLL3 extracellular segment fused to EpCAM transmembrane and intracellular regions) (human) (UniProt Q9NYJ7); assay: FACS, CHO-K1 hDLL3 cells, 100 nM antibody
[3] = biological target: human DLL3 protein (extracellular segment, His tag) (human) (UniProt Q9NYJ7); assay: SPR (Biacore 8K), antibody captured on Protein A chip, DLL3 antigen in solution, 1:1 Langmuir fit
[4] = biological target: human DLL3 protein expressed on CHO-K1 recombinant cells (human DLL3 extracellular segment fused to EpCAM transmembrane and intracellular regions) (human) (UniProt Q9NYJ7); assay: FACS, CHO-K1 hDLL3 cells, 4 nM antibody
[5] = biological target: monkey DLL3 on CHO-K1-cyno DLL3 cells (cynomolgus monkey); assay: FACS, CHO-K1-cyno DLL3 cells, 0.8 nM antibody
[6] = biological target: monkey DLL3 on CHO-K1-cyno DLL3 cells (cynomolgus monkey); assay: FACS, CHO-K1-cyno DLL3 cells, 20 nM antibody
[7] = biological target: monkey DLL3 on CHO-K1-cyno DLL3 cells (cynomolgus monkey); assay: FACS, CHO-K1-cyno DLL3 cells, 0.0064 nM antibody
[8] = biological target: DLL3 endogenously expressed on NCI-H82 cells (UniProt Q9NYJ7); assay: FACS on NCI-H82 cells; antibody 0.8 nM
[9] = biological target: monkey DLL3 on CHO-K1-cyno DLL3 cells (cynomolgus monkey); assay: FACS, CHO-K1-cyno DLL3 cells, 0.032 nM antibody
[10] = biological target: DLL3 endogenously expressed on NCI-H82 cells (UniProt Q9NYJ7); assay: FACS on NCI-H82 cells; antibody 0.0064 nM
[11] = biological target: mouse DLL3 on CHO-K1-mDLL3 cells (mouse) (UniProt O88516); assay: FACS, CHO-K1-mDLL3 cells, 0.16 nM antibody
[12] = biological target: monkey DLL3 on CHO-K1-cyno DLL3 cells (cynomolgus monkey); assay: FACS, CHO-K1-cyno DLL3 cells, 4 nM antibody
[13] = biological target: human DLL3 protein expressed on CHO-K1 recombinant cells (human DLL3 extracellular segment fused to EpCAM transmembrane and intracellular regions) (human) (UniProt Q9NYJ7); assay: FACS, CHO-K1 hDLL3 cells, 0.00128 nM antibody
[14] = biological target: DLL3 endogenously expressed on NCI-H82 cells (UniProt Q9NYJ7); assay: FACS on NCI-H82 cells; antibody 4 nM
[15] = biological target: DLL3 endogenously expressed on NCI-H82 cells (UniProt Q9NYJ7); assay: FACS on NCI-H82 cells; antibody 0.032 nM
[16] = biological target: human DLL3 protein expressed on CHO-K1 recombinant cells (human DLL3 extracellular segment fused to EpCAM transmembrane and intracellular regions) (human) (UniProt Q9NYJ7); assay: FACS, CHO-K1 hDLL3 cells, 0.032 nM antibody
[17] = biological target: DLL3 endogenously expressed on NCI-H82 cells (UniProt Q9NYJ7); assay: FACS on NCI-H82 cells; antibody 100 nM
[18] = biological target: human DLL1 protein (Acro, Cat. No. DL1-H52H8) (human) (UniProt O00548); assay: ELISA, coated hDLL1; maximum over 0.1, 1, 10, 100 nM antibody
[19] = biological target: human DLL4 protein (Acro, Cat. No. DL4-H5227) (human) (UniProt Q9NR61); assay: ELISA, coated hDLL4; maximum over 0.1, 1, 10, 100 nM antibody
[20] = biological target: DLL3 endogenously expressed on NCI-H82 cells (UniProt Q9NYJ7); assay: FACS on NCI-H82 cells; antibody 0.16 nM
[21] = biological target: monkey DLL3 on CHO-K1-cyno DLL3 cells (cynomolgus monkey); assay: FACS, CHO-K1-cyno DLL3 cells, 100 nM antibody
[22] = biological target: mouse DLL3 on CHO-K1-mDLL3 cells (mouse) (UniProt O88516); assay: FACS, CHO-K1-mDLL3 cells, 0.032 nM antibody
[23] = biological target: mouse DLL3 on CHO-K1-mDLL3 cells (mouse) (UniProt O88516); assay: FACS, CHO-K1-mDLL3 cells, 0.8 nM antibody
[24] = biological target: human DLL3 protein expressed on CHO-K1 recombinant cells (human DLL3 extracellular segment fused to EpCAM transmembrane and intracellular regions) (human) (UniProt Q9NYJ7); assay: FACS, CHO-K1 hDLL3 cells, 20 nM antibody
[25] = biological target: mouse DLL3 on CHO-K1-mDLL3 cells (mouse) (UniProt O88516); assay: FACS, CHO-K1-mDLL3 cells, 20 nM antibody
[26] = biological target: monkey DLL3 on CHO-K1-cyno DLL3 cells (cynomolgus monkey); assay: FACS, CHO-K1-cyno DLL3 cells, 0.00128 nM antibody
[27] = biological target: human DLL3 protein expressed on CHO-K1 recombinant cells (human DLL3 extracellular segment fused to EpCAM transmembrane and intracellular regions) (human) (UniProt Q9NYJ7); assay: FACS, CHO-K1 hDLL3 cells, 0.16 nM antibody
[28] = biological target: mouse DLL3 on CHO-K1-mDLL3 cells (mouse) (UniProt O88516); assay: FACS, CHO-K1-mDLL3 cells, 100 nM antibody
[29] = biological target: DLL3 endogenously expressed on NCI-H82 cells (UniProt Q9NYJ7); assay: FACS on NCI-H82 cells; antibody 0.00128 nM
[30] = biological target: human DLL3 protein expressed on CHO-K1 recombinant cells (human DLL3 extracellular segment fused to EpCAM transmembrane and intracellular regions) (human) (UniProt Q9NYJ7); assay: FACS, CHO-K1 hDLL3 cells, 0.8 nM antibody
[31] = biological target: mouse DLL3 on CHO-K1-mDLL3 cells (mouse) (UniProt O88516); assay: FACS, CHO-K1-mDLL3 cells, 0.00128 nM antibody
[32] = biological target: mouse DLL3 on CHO-K1-mDLL3 cells (mouse) (UniProt O88516); assay: FACS, CHO-K1-mDLL3 cells, 0.0064 nM antibody
[33] = biological target: human DLL3 protein expressed on CHO-K1 recombinant cells (human DLL3 extracellular segment fused to EpCAM transmembrane and intracellular regions) (human) (UniProt Q9NYJ7); assay: FACS, CHO-K1 hDLL3 cells, 0.0064 nM antibody
[34] = biological target: DLL3 endogenously expressed on NCI-H82 cells (UniProt Q9NYJ7); assay: FACS on NCI-H82 cells; antibody 20 nM
[35] = biological target: monkey DLL3 on CHO-K1-cyno DLL3 cells (cynomolgus monkey); assay: FACS, CHO-K1-cyno DLL3 cells, 0.16 nM antibody
[36] = biological target: mouse DLL3 on CHO-K1-mDLL3 cells (mouse) (UniProt O88516); assay: FACS, CHO-K1-mDLL3 cells, 4 nM antibody

Sequence of human DLL3 protein expressed on CHO-K1 recombinant cells (human DLL3 extracellular segment fused to EpCAM transmembrane and intracellular regions) (human) (Q9NYJ7 other isoform, or with tags, fused parts or gaps limits assumed): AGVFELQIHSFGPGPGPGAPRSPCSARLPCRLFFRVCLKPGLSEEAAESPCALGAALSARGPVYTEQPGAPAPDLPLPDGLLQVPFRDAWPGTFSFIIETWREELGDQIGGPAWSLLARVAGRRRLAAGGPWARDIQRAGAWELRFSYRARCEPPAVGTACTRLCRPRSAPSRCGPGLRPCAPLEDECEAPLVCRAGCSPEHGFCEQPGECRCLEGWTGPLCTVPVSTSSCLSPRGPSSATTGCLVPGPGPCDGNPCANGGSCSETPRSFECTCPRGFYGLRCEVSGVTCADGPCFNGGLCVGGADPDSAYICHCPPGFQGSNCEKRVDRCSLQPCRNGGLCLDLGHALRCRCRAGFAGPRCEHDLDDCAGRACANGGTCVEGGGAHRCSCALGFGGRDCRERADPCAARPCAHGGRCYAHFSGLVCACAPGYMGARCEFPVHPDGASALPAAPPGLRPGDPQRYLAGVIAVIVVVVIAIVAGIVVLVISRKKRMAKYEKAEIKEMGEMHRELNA
Sequence of human DLL3 protein (extracellular segment, His tag) (human) (Q9NYJ7 27-492): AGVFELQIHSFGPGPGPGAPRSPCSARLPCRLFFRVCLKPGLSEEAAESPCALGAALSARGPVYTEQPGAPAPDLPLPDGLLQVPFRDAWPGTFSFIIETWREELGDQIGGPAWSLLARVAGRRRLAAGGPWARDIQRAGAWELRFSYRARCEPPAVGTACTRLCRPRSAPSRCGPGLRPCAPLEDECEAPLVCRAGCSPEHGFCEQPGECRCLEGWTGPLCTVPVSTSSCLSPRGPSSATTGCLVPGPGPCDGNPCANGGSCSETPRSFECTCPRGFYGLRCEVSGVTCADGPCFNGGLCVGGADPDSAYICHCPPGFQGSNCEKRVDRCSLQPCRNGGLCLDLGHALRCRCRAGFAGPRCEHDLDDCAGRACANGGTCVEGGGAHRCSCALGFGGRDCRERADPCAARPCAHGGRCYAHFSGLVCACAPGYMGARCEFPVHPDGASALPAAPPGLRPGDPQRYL
Sequence of DLL3 endogenously expressed on NCI-H82 cells (Q9NYJ7 27-618): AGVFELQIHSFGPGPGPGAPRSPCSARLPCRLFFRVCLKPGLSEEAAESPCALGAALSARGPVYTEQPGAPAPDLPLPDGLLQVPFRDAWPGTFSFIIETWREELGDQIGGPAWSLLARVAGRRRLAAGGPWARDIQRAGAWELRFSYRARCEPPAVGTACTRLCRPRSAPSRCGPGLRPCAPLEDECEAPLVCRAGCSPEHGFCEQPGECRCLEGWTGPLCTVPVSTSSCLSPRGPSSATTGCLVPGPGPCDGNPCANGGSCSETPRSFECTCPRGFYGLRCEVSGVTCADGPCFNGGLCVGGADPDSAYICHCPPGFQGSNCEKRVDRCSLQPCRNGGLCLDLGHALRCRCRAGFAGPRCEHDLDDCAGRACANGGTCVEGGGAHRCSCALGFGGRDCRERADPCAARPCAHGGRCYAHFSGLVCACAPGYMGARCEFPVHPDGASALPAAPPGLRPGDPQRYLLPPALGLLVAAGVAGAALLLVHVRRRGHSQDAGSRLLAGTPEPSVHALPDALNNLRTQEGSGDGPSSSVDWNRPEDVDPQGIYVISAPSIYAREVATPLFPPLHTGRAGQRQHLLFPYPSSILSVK
Sequence of human delta-like ligand 3 (DLL3) on SHP77 cells (human) (Q9NYJ7 27-618, stated change not applied): as the sequence (Q9NYJ7 27-618) above
Sequence of mouse DLL3 on CHO-K1-mDLL3 cells (mouse) (O88516 other isoform, or with tags, fused parts or gaps limits assumed): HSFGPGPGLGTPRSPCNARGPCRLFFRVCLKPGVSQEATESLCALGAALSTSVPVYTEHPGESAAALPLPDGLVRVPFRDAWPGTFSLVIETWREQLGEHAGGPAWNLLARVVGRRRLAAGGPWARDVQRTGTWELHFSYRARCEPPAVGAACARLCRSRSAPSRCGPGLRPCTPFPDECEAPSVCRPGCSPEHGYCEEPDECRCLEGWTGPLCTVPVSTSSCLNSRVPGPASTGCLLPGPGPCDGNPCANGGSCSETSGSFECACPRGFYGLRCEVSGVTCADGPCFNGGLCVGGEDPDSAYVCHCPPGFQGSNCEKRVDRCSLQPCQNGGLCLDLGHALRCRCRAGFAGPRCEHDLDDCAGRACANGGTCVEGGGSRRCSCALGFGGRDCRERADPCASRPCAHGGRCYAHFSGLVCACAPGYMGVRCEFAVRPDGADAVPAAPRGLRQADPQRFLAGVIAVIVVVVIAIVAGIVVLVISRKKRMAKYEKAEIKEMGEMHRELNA
Sequence of human DLL1 protein (Acro, Cat. No. DL1-H52H8) (human) (O00548 18-540 limits assumed): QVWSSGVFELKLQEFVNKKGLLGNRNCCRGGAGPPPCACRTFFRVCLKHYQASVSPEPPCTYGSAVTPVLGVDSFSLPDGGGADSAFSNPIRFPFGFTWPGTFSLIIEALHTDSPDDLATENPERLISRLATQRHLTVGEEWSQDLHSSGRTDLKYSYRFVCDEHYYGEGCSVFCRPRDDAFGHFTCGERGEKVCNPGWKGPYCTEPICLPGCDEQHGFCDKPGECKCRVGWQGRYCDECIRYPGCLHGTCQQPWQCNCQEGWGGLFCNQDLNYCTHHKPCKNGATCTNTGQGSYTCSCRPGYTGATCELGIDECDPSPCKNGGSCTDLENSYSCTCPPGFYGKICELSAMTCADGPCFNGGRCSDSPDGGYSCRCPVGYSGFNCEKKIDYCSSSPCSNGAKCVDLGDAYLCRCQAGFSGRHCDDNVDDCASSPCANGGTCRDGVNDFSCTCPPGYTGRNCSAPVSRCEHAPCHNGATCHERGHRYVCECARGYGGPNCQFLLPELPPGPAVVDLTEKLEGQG
Sequence of human DLL4 protein (Acro, Cat. No. DL4-H5227) (human) (Q9NR61 27-524 limits assumed): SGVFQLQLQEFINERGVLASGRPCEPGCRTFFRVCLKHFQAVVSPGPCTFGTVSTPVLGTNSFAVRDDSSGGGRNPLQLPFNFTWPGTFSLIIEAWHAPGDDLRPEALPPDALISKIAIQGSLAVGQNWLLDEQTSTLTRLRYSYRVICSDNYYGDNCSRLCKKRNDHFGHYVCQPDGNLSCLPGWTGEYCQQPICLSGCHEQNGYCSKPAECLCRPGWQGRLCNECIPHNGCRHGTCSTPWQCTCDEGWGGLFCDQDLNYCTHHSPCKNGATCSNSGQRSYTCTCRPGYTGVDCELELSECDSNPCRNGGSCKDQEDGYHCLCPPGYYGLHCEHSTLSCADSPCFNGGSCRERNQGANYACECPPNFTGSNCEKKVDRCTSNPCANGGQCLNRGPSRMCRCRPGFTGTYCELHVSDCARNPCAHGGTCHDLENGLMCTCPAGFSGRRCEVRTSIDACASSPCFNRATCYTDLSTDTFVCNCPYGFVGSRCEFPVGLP
Sequence of monkey DLL3 on CHO-K1-cyno DLL3 cells (cynomolgus monkey) (chain, as listed by the source limits assumed): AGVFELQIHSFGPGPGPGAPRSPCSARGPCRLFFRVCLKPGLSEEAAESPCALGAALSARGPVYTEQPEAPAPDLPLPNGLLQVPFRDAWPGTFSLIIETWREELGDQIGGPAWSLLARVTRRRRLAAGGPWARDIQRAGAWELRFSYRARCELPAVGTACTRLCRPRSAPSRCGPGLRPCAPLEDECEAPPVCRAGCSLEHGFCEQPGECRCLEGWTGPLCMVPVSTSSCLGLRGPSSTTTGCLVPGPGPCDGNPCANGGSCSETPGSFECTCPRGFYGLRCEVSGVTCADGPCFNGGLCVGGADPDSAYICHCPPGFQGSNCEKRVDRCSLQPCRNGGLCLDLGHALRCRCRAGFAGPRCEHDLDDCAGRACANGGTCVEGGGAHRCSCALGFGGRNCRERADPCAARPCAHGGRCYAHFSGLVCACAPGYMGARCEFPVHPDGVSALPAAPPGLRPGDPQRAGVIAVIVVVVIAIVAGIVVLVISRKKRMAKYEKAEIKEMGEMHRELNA

MFI at 0.00128 nM [1]: 91 MFI
MFI at 0.0064 nM [1]: 99 MFI
MFI at 0.032 nM [1]: 120 MFI
MFI at 0.16 nM [1]: 207 MFI
MFI at 0.8 nM [1]: 407 MFI
MFI at 4 nM [1]: 610 MFI
MFI at 20 nM [1]: 796 MFI
MFI at 100 nM [1]: 1110 MFI
MFI [2]: 16400 MFI
Kd [3]: 0.111 nM
koff [3]: 0.000135 s⁻¹
kon [3]: 1.21e+06 M⁻¹ s⁻¹
MFI [4]: 15400 MFI
MFI [5]: 10100 MFI
MFI [6]: 33000 MFI
MFI [7]: 287 MFI
MFI [8]: 554
MFI [9]: 661 MFI
MFI [10]: 142
MFI [11]: 204 MFI
MFI [12]: 25300 MFI
MFI [13]: 231 MFI
MFI [14]: 624
MFI [15]: 217
MFI [16]: 705 MFI
MFI [17]: 1110
Emax of OD450 nm binding value [18]: 0.17 OD450 nm
Emax of OD450 nm binding value [19]: 0.25 OD450 nm
MFI [20]: 428
MFI [21]: 33000 MFI
MFI [22]: 152 MFI
MFI [23]: 272 MFI
MFI [24]: 16100 MFI
MFI [25]: 355 MFI
MFI [26]: 200 MFI
MFI [27]: 2380 MFI
MFI [28]: 374 MFI
MFI [29]: 113
MFI [30]: 8420 MFI
MFI [31]: 109 MFI
MFI [32]: 118 MFI
MFI [33]: 322 MFI
MFI [34]: 754
MFI [35]: 1670 MFI
MFI [36]: 308 MFI
B1: Hab014VL2VH1-hFc (scFv, part only; not given: scFv linker and human IgG1 Fc, V domains shown, not shown: another chain or arm of the molecule; a dimerising Fc or GST; small tags and cut ends)
VL: DIQMTQSPSSLSASVGDRVTITCKASEDIYNRLAWYQQKPGKVPKLLISGATSLETGVPSRFSGSGSGKDFTLTISSLQPEDVATYYCQQYWSLPWTFGGGTKVEIK
VH: EVQLVQSGAEVKKPGASVKVSCKASGYTFTDYYMNWVRQAPGQRLEWMGDINPNHGDTGYNQKFTGRVTITVDKSASTAYMELSSLRSEDTAVYYCARNFFYYGTTYGWYFDVWGQGTTVTVSS

MFI at 0.00128 nM [1]: 91 MFI
MFI at 0.0064 nM [1]: 96 MFI
MFI at 0.032 nM [1]: 112 MFI
MFI at 0.16 nM [1]: 179 MFI
MFI at 0.8 nM [1]: 348 MFI
MFI at 4 nM [1]: 567 MFI
MFI at 20 nM [1]: 770 MFI
MFI at 100 nM [1]: 1120 MFI
MFI [2]: 16500 MFI
Kd [3]: 0.0946 nM
koff [3]: 0.000129 s⁻¹
kon [3]: 1.36e+06 M⁻¹ s⁻¹
MFI [4]: 15300 MFI
MFI [5]: 8680 MFI
MFI [6]: 32500 MFI
MFI [7]: 245 MFI
MFI [8]: 547
MFI [9]: 565 MFI
MFI [10]: 125
MFI [11]: 192 MFI
MFI [12]: 27700 MFI
MFI [13]: 207 MFI
MFI [14]: 596
MFI [15]: 178
MFI [16]: 555 MFI
MFI [17]: 1030
Emax of OD450 nm binding value [18]: 0.08 OD450 nm
Emax of OD450 nm binding value [19]: 0.1 OD450 nm
MFI [20]: 356
MFI [21]: 33900 MFI
MFI [22]: 137 MFI
MFI [23]: 253 MFI
MFI [24]: 15700 MFI
MFI [25]: 332 MFI
MFI [26]: 180 MFI
MFI [27]: 2060 MFI
MFI [28]: 382 MFI
MFI [29]: 108
MFI [30]: 7320 MFI
MFI [31]: 103 MFI
MFI [32]: 110 MFI
MFI [33]: 299 MFI
MFI [34]: 732
MFI [35]: 1730 MFI
MFI [36]: 296 MFI
B2: Hab014VL3VH1-hFc (scFv, part only; not given: VL-VH linker and human IgG1 Fc, V domains shown, not shown: another chain or arm of the molecule; a dimerising Fc or GST; small tags and cut ends)
VL: DIVMTQSPDSLAVSLGERATINCKASEDIYNRLAWYQQKPGQTPKLLISGATSLETGVPDRFSGSGSGKDFTLTISSLQAEDVAVYYCQQYWSLPWTFGGGTKVEIK
VH: EVQLVQSGAEVKKPGASVKVSCKASGYTFTDYYMNWVRQAPGQRLEWMGDINPNHGDTGYNQKFTGRVTITVDKSASTAYMELSSLRSEDTAVYYCARNFFYYGTTYGWYFDVWGQGTTVTVSS

MFI at 0.00128 nM [1]: 97 MFI
MFI at 0.0064 nM [1]: 113 MFI
MFI at 0.032 nM [1]: 169 MFI
MFI at 0.16 nM [1]: 371 MFI
MFI at 0.8 nM [1]: 720 MFI
MFI at 4 nM [1]: 829 MFI
MFI at 20 nM [1]: 962 MFI
MFI at 100 nM [1]: 1190 MFI
MFI [2]: 11800 MFI
Kd [3]: 0.0194 nM
koff [3]: 3.49e-05 s⁻¹
kon [3]: 1.8e+06 M⁻¹ s⁻¹
MFI [4]: 10300 MFI
MFI [5]: 4290 MFI
MFI [6]: 6820 MFI
MFI [7]: 163 MFI
MFI [8]: 914
MFI [9]: 389 MFI
MFI [10]: 131
MFI [11]: 350 MFI
MFI [12]: 6270 MFI
MFI [13]: 120 MFI
MFI [14]: 1020
MFI [15]: 218
MFI [16]: 302 MFI
MFI [17]: 1410
Emax of OD450 nm binding value [18]: 0.39 OD450 nm
Emax of OD450 nm binding value [19]: 0.67 OD450 nm
MFI [20]: 461
MFI [21]: 7520 MFI
MFI [22]: 172 MFI
MFI [23]: 813 MFI
MFI [24]: 11300 MFI
MFI [25]: 1340 MFI
MFI [26]: 117 MFI
MFI [27]: 937 MFI
MFI [28]: 1490 MFI
MFI [29]: 114
MFI [30]: 4640 MFI
MFI [31]: 114 MFI
MFI [32]: 123 MFI
MFI [33]: 152 MFI
MFI [34]: 1130
MFI [35]: 1200 MFI
MFI [36]: 1120 MFI
B3: Hab015VL4VH1b-hFc (scFv, part only; not given: VL-VH linker and human IgG1 Fc, V domains shown, not shown: another chain or arm of the molecule; a dimerising Fc or GST; small tags and cut ends)
VL: NIVLTQSPATLSLSPGERATLSCKASENVGTYVSWFQQKPGQSPRLLIYGASNRYTGIPARFSGSGSGTDFTLTISSLEPEDFAVYYCGQFYSFPSTFGGGTKVEIK
VH: EVQLVESGGGLVKPGGSLRLSCAASGITFSNFWMNWVRQAPGKGLEWVGQIRLKSEDYATHYAESVKGRFTISREDSKNTVYLQMNSLKTEDTAVYYCTTGYYFDYWGQGTTVTVSS
